PMC4005679, “In vitro assembly and activity of an archaeal CRISPR-Cas type I-A Cascade interference complex” (Nucleic Acids Research, 2014)

T1: Cas5a (recombinant, refolded) (Thermoproteus tenax, UniProt G4RJZ2 1-226)
T1 construct: Cas5a of the type I-A Cascade of Thermoproteus tenax Kra1 (genome FN869859)
T1 sequence (looked up): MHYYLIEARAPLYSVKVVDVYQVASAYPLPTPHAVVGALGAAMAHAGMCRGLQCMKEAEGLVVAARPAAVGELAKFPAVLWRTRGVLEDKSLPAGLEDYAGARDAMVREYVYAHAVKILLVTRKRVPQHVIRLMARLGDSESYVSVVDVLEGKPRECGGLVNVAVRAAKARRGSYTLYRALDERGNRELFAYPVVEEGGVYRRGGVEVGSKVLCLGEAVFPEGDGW

T2: Cas7 purified via a His-SUMO-tagged fusion protein (Thermoproteus tenax, UniProt G4RJZ1 1-329)
T2 construct: Cas7 of the type I-A Cascade of Thermoproteus tenax Kra1 (genome FN869859), full-length protein; also called Cas7-SUMO; monomeric Cas7; source: E. coli BL21-Gold(DE3)Star pRARE, purified (Ni-NTA, SUMO protease, HiTrap Heparin, Superdex 75)
T2 sequence (looked up): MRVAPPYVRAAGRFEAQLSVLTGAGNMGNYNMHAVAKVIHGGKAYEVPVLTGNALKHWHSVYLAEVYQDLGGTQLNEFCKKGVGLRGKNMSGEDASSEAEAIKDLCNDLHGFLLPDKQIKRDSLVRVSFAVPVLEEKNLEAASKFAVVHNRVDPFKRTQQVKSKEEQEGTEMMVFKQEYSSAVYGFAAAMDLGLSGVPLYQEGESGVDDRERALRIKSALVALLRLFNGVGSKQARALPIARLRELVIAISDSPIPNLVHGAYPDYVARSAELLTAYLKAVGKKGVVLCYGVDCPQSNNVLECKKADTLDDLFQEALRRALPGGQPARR

T3: Cas8a2 (recombinant, refolded) (Thermoproteus tenax, UniProt G4RJZ5 1-361)
T3 construct: Cas8a2 of the type I-A Cascade of Thermoproteus tenax Kra1 (genome FN869859)
T3 sequence (looked up): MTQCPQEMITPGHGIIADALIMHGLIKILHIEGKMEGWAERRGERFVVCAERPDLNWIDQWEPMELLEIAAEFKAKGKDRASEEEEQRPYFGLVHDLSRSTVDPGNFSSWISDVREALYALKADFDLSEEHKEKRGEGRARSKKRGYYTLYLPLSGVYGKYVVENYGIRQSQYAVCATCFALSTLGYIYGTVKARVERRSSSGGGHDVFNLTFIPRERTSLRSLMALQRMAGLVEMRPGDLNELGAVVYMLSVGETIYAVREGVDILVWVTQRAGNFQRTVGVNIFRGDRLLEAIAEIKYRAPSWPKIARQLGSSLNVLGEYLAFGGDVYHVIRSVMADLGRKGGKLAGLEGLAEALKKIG

T4: Cas7 (Thermoproteus tenax Kra1, UniProt G4RJZ1 1-329)
T4 sequence: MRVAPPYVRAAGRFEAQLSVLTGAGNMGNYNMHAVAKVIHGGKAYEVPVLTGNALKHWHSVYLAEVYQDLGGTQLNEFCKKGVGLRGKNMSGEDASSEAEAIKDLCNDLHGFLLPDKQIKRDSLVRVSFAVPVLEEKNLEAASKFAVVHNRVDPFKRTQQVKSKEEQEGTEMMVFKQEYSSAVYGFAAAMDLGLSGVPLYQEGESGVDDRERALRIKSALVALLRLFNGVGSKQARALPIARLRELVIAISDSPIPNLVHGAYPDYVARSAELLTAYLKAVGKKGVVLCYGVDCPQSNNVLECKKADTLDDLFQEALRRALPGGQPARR


How the values were obtained:
[1] = target: T1, Cas5a (recombinant, refolded); experiment: SEC; six co-refolded Cascade subunits, incubated 30 min at 65°C, Superdex 200 10/300; fractions TCA-precipitated and analysed by SDS-PAGE; conditions: both partners purified
[2] = target: T2, Cas7 purified via a His-SUMO-tagged …; experiment: as above; conditions: both partners purified
[3] = target: T3, Cas8a2 (recombinant, refolded); experiment: as above; conditions: both partners purified
Cas7 = target: T4, Cas7; experiment: EMSA; 4 uM Cas7, no competitor; nonspecific, similar shift with yeast RNA; 100 mM HEPES/KOH pH 7, 100 mM NaCl, 10 mM beta-mercaptoethanol, 50 ng yeast RNA, 30 min at 70 C (Cascade; 6% native TBE-PAGE); Cas7 alone without yeast RNA at 80 C, agarose gel; 2-4 nM labeled crRNA; conditions: protein: recombinant; tags: His-SUMO tag cleaved off; label: 5'-32P (EMSA); unlabeled in SEC; single strand

| Binder | binding result [1] | binding result [2] | binding result [3] | binding result (Cas7) |
| --- | --- | --- | --- | --- |
| Csa5 (recombinant, soluble) (natural protein, Thermoproteus tenax, UniProt G4RJZ0 1-130, looked up, Csa5, subunit of the type I-A Cascade of Thermoproteus tenax Kra1 (genome FN869859); source: E. coli Rosetta2(DE3)pLysS, csa5 in pET24a(+), purified (heat precipitation 90°C, Hi Screen Blue FF, MonoQ)) MESVQLKKEELVERAARSVRPAVHLEMAYDVLDELSRSPEKYPEQLAKLSRIVVKVLNDVEDELEHNPQNEELQKARNRLAAWGGYVAELAKRLEEADDRERIRMVRLFCAMALAPDKLTVELKKLLKGR | binds | binds | binds |  |
| AUUGAAAGCGUUGAUGCGGCCGCGACUGGCUGACUCAGCUAUUACGUUGA (ssRNA, 5'-OH from hammerhead cleavage before labeling) [crRNA 5.2] |  |  |  | binds |
